According to patent US20210355204A1 (XOMA TECHNOLOGY, published 2021):
Each block holds one binder with its values, some of them ahead of it.

How the values were obtained:
TGFβ2 [1] = molecular target: T1, TGFβ2 (human, UniProt P61812 303-414); test: SPR (Biacore 2000), antibody immobilised on CM4 chip, TGFβ injected
T1 construct: Commercial recombinant protein; also called transforming growth factor beta 2
T1 sequence (looked up): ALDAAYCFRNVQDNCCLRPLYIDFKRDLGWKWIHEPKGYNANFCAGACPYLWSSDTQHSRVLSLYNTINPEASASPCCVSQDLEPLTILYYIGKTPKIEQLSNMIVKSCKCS
Protocol: (§1) A CM4 sensor chip (GE Healthcare) was used on a BIACORE 2000 system (GE Healthcare). The chip was preconditioned with two 30 second injections each at 50 μL/minute flow rate of 100 mM HCl, Glycine pH 2.0, 50 mM NaOH, and running buffer prior to immobilization. Running buffer for immobilization was a HEPES Buffered Saline (HBS-EP+) with 10 mM Hepes, 150 mM Sodium Chloride, 3 mM EDTA, and 0.05% Polysorbate 20 (Teknova). The chip surface was activated with a seven minute injection at 10 μL/minute of a freshly mixed 1:1 solution of 0.1 M N-Hydroxysuccinimide (NHS) and 0.4 M 1-Ethyl-3-(3-dimethylaminopropyl) carbodiimide hydrochloride (EDC). Following the activation injection, 1 ug/mL anti-TGFβ antibody in acetate pH 4.5 was injected at 10 μL/minute for one minute, with injections targeting 120 RU. 8 minutes of 1M Ethanolamine hydrochloride-NaOH pH 8.5 was injected to block the surface. The NHS, EDC, and Ethanolamine used were from the BIACORE Amine Coupling Kit.
(§2) Kinetic Analysis was performed using a running buffer of thoroughly degassed form of the HBS-EP+ buffer above supplemented with 1 mg/mL BSA (Sigma Aldrich, St. Louis Mo.). TGFβ sample injections were performed at 50 μL/minute for four minutes with a 900 second dissociation time. […] Regeneration was then performed with three injections of 30 seconds each of 100 mM HCl in 3 M MgCl₂ followed by a final 30 second blank buffer injection.
(§3) The data were analyzed using Scrubber2 (BioLogic Software, Campbell Australia) and was double referenced by subtracting both the blank flow cell data and the averaged bracketing blank injections. […] TGFβ proteins were injected at the same concentrations as described above at 30 μL/minute.

TGFβ1 [2] = molecular target: T2, TGFβ1 (human, UniProt P01137 279-390); test: as above
T2 construct: mature; also called transforming growth factor beta 1
Protocol: as §1, §2, §3

TGFβ3 [3] = molecular target: T3, TGFβ3 (human, UniProt P10600 301-412); test: as above
T3 construct: Commercial recombinant protein; also called transforming growth factor beta 3
T3 sequence (looked up): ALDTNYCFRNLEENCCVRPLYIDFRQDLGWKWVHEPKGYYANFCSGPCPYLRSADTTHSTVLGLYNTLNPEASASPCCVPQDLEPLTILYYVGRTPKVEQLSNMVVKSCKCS
Protocol: as §1, §2, §3

TGFβ2 [4] = molecular target: T1, TGFβ2; test: SPR competition: 4 nM TGFβ pre-mixed with 133 nM of the row's molecule, injected over immobilised XPA.42.089 (self competition)
Protocol: (§4) A CM5 sensor chip (GE Healthcare) was used on a BIACORE 2000 system. The chip was preconditioned with four 30 second injections at 50 uL/minute flow rate of 100 mM HCl prior to immobilization. Running buffer for immobilization was a HEPES Buffered Saline (HBS-EP+) with 10 mM Hepes, 150 mM Sodium Chloride, 3 mM EDTA, and 0.05% Polysorbate 20. The chip surface was activated with a seven minute injection at 10 uL/minute of a freshly mixed 1:1 solution of 0.1 M N-Hydroxysuccinimide (NHS) and 0.4 M 1-Ethyl-3-(3-dimethylaminopropyl) carbodiimide hydrochloride (EDC). […] Injections were monitored and performed sequentially to establish immobilization levels very close to 300 RU. Eight minutes of 1 M Ethanolamine hydrochloride-NaOH pH 8.5 was injected to block the surface. The NHS, EDC, and Ethanolamine used were from the BIACORE Amine Coupling Kit. Fc1 was the activated and deactivated control.
(§5) Competition assays were performed using a running buffer of thoroughly degassed form of the HBS-EP+ buffer above supplemented with 1 mg/mL BSA. […] The TGFβ-RIIb-Fc recombinant receptor (R&D Systems) also was included as a competitor. Samples were allowed to come to equilibrium for 40 minutes at room temperature before the BIACORE run was started. Equilibrated samples were then injected at 30 uL/minute for three minutes over all of the flow cells. Regeneration was performed every cycle with one injection of 50 mM NaOH at 50 uL/minute for 6 seconds (5 μLs) and followed by a thirty second buffer injection. Samples were run in duplicates and analyzed for level of TGFβ bound at the end of the three minutes.

TGFβ1 [5] = molecular target: T2, TGFβ1; test: as above
Protocol: as §4, §5

TGFβ3 [6] = molecular target: T3, TGFβ3; test: as above
Protocol: as §4, §5

TGFβ2 [7] = molecular target: T1, TGFβ2; test: SPR: 4 nM TGFβ without competitor injected over immobilised XPA.42.089 (about 300 RU)
Protocol: as §4, §5

TGFβ1 [8] = molecular target: T2, TGFβ1; test: as above
Protocol: as §4, §5

TGFβ3 [9] = molecular target: T3, TGFβ3; test: as above
Protocol: as §4, §5

TGFβ2 [10] = molecular target: T1, TGFβ2; test: SPR (Biacore 2000), TGFβ immobilised on CM1 chip, antibody injected
Protocol: (§6) The chip surface was activated with four minute injections at 20 μL/minute of a freshly mixed 1:1 solution of 0.1M N-Hydroxysuccinimide (NHS) and 0.4M 1-Ethyl-3-(3-dimethylaminopropyl) carbodiimide hydrochloride (EDC). Following the activation injection a 0.1 ug/mL solution of TGFβ in acetate pH 4.0 was injected at 20 μL/minute for several minutes. […] Injections of TGFβ were performed as a series of 1 to 2 minute injections looking at immobilized level between each injection. The target immobilized density of each TGFβ ligand was 30 RU. After the TGFβ immobilization injections, 4 minutes of 1 M Ethanolamine hydrochloride-NaOH pH 8.5 was injected to block the surface.
(§7) Each of the antibodies was diluted in running buffer to 5 μg/mL (33.3 nM) and 4 subsequent five-fold dilutions were prepared setting up concentrations of 33.33 nM, 6.67 nM, 1.33 nM, 267 pM, and 53 pM for each. These were then injected using the Kinject setting for four minutes at 50 μL/minute, with a 900 second dissociation time. Regeneration was then performed with a 12 μL (14.4 second) injection of 100 mM HCl at 50 μL/minute followed by an 18 second buffer injection. Injections were across all flow cells simultaneously and samples were run injected in quadruplicates with blank injections bracketing each set of descending concentration injection groups for each antibody. This means that before the same sample was injected a second time all other concentrations of all antibodies were injected once.
(§8) The data were analyzed using Scrubber2 (BioLogic Software, Campbell Australia) and were double referenced by subtracting both the blank flow cell data and the averaged bracketing blank injections.

TGFβ1 [11] = molecular target: T2, TGFβ1; test: as above
Protocol: as §6, §7, §8

TGFβ3 [12] = molecular target: T3, TGFβ3; test: as above
Protocol: as §6, §7, §8

TGFβ2 [13] = molecular target: T1, TGFβ2; test: cell-based or functional assay
TGFβ1 [14] = molecular target: T2, TGFβ1; test: cell-based or functional assay
TGFβ2 [15] = molecular target: T1, TGFβ2; test: SPR
TGFβ1 [16] = molecular target: T2, TGFβ1; test: SPR
TGFβ3 [17] = molecular target: T3, TGFβ3; test: SPR
TGFβ2 [18] = molecular target: T1, TGFβ2; test: SPR competition: 4 nM TGFβ pre-mixed with 133 nM of the row's molecule, injected over immobilised XPA.42.089 (competitor)
Protocol: as §4, §5

TGFβ1 [19] = molecular target: T2, TGFβ1; test: as above
Protocol: as §4, §5

TGFβ3 [20] = molecular target: T3, TGFβ3; test: as above
Protocol: as §4, §5

TGFβ3 [21] = molecular target: T3, TGFβ3; test: cell-based or functional assay

Kd (TGFβ2 [1]): 0.025 nM
koff (TGFβ2 [1]): 0.000414 s⁻¹
kon (TGFβ2 [1]): 1.62e+07 M⁻¹ s⁻¹
Kd (TGFβ1 [2]): 3.8 pM
koff (TGFβ1 [2]): 0.000167 s⁻¹
kon (TGFβ1 [2]): 4.4e+07 M⁻¹ s⁻¹
Kd (TGFβ3 [3]): 1.4 nM
koff (TGFβ3 [3]): 0.0109 s⁻¹
kon (TGFβ3 [3]): 7.7e+06 M⁻¹ s⁻¹
average RU of TGFβ binding (TGFβ2 [4]): 0.363 RU
average RU of TGFβ binding (TGFβ1 [5]): 1.7 RU
average RU of TGFβ binding (TGFβ3 [6]): 9.77 RU
average RU of TGFβ binding (TGFβ2 [7]): 61 RU
average RU of TGFβ binding (TGFβ1 [8]): 63.9 RU
average RU of TGFβ binding (TGFβ3 [9]): 23.6 RU
Kd (TGFβ2 [10]): 0.29 nM
koff (TGFβ2 [10]): 0.00139 s⁻¹
kon (TGFβ2 [10]): 4.8e+06 M⁻¹ s⁻¹
Kd (TGFβ1 [11]): 0.177 nM
koff (TGFβ1 [11]): 0.00106 s⁻¹
kon (TGFβ1 [11]): 5.98e+06 M⁻¹ s⁻¹
Kd (TGFβ3 [12]): > 17 nM
koff (TGFβ3 [12]): 0.057 s⁻¹
kon (TGFβ3 [12]): 3.4e+06 M⁻¹ s⁻¹
IL-11 Release Assay - IC50 (A549 cells) (TGFβ2 [13]): 58 ng/mL
IL-11 Release Assay - IC50 (A549 cells) (TGFβ1 [14]): 37 ng/mL
B1: XPA.42.089 (antibody, IgG2, V domains shown)
VH: QVQLVQSGAEVKKPGSSVKVSCKASGGTFSSYAISWVRQAPGQGLEWMGGIIPIFGTANYAQKFQGRVTITADESTSTAYMELSSLRSEDTAVYYCARGLWEVRALPSVYWGQGTLVTVSS
VL: SYELTQPPSVSVAPGQTARITCGANDIGSKSVHWYQQKAGQAPVLVVSEDIIRPSGIPERISGSNSGNTATLTISRVEAGDEADYYCQVWDRDSDQYVFGTGTKVTVLG

binding result (TGFβ2 [15]): no binding
binding result (TGFβ1 [16]): no binding
binding result (TGFβ3 [17]): no binding
B2: TGFβ-RI (recombinant form) (receptor, UniProt P36897 34-126, looked up)
chain: LQCFCHLCTKDNFTCVTDGLCFVSVTETTDKVIHNSMCIAEIDLIPRDRPFVCAPSSKTGSVTTTYCCNQDHCNKIELPTTVKSSPGLGPVEL
notes: also called TGFβ receptor type 1 protein; TGFβ-R1

Kd (TGFβ2 [1]): 0.051 nM
koff (TGFβ2 [1]): 0.000535 s⁻¹
kon (TGFβ2 [1]): 1.04e+07 M⁻¹ s⁻¹
Kd (TGFβ1 [2]): 59 pM
koff (TGFβ1 [2]): 0.000905 s⁻¹
kon (TGFβ1 [2]): 1.53e+07 M⁻¹ s⁻¹
Kd (TGFβ3 [3]): 0.455 nM
koff (TGFβ3 [3]): 0.00384 s⁻¹
kon (TGFβ3 [3]): 8.45e+06 M⁻¹ s⁻¹
average RU of TGFβ binding (TGFβ2 [18]): 5.18 RU
average RU of TGFβ binding (TGFβ1 [19]): 10.8 RU
average RU of TGFβ binding (TGFβ3 [20]): 7.32 RU
Kd (TGFβ2 [10]): 0.109 nM
koff (TGFβ2 [10]): 0.000798 s⁻¹
kon (TGFβ2 [10]): 7.3e+06 M⁻¹ s⁻¹
Kd (TGFβ1 [11]): 0.313 nM
koff (TGFβ1 [11]): 0.0017 s⁻¹
kon (TGFβ1 [11]): 5.44e+06 M⁻¹ s⁻¹
Kd (TGFβ3 [12]): 1.3 nM
koff (TGFβ3 [12]): 0.00696 s⁻¹
kon (TGFβ3 [12]): 5.45e+06 M⁻¹ s⁻¹
IL-11 Release Assay - IC50 (A549 cells) (TGFβ2 [13]): 110 ng/mL
IL-11 Release Assay - IC50 (A549 cells) (TGFβ1 [14]): 220 ng/mL
IL-11 Release Assay - IC50 (A549 cells) (TGFβ3 [21]): 1800 ng/mL
B3: XPA.42.068 (antibody, V domains shown)
VH: not shown
VL: SSELTQPPSVSVAPGEKARITCGGNNIGRKSVHWYQQRPGQAPVVVLYYDRVRPSGIPERFSGSNSGNTATLTITRVEAGDEADYFCQVWDNTSEHVVFGGGTQLTVLG

Kd (TGFβ2 [1]): 0.0029 nM
koff (TGFβ2 [1]): 4.99e-05 s⁻¹
kon (TGFβ2 [1]): 1.71e+07 M⁻¹ s⁻¹
Kd (TGFβ1 [2]): 1.7 pM
koff (TGFβ1 [2]): 7.2e-05 s⁻¹
kon (TGFβ1 [2]): 4.25e+07 M⁻¹ s⁻¹
Kd (TGFβ3 [3]): 0.0057 nM
koff (TGFβ3 [3]): 7.5e-05 s⁻¹
kon (TGFβ3 [3]): 1.3e+07 M⁻¹ s⁻¹
Kd (TGFβ2 [10]): 0.031 nM
koff (TGFβ2 [10]): 0.000394 s⁻¹
kon (TGFβ2 [10]): 1.28e+07 M⁻¹ s⁻¹
Kd (TGFβ1 [11]): 0.032 nM
koff (TGFβ1 [11]): 0.000363 s⁻¹
kon (TGFβ1 [11]): 1.14e+07 M⁻¹ s⁻¹
Kd (TGFβ3 [12]): 0.054 nM
koff (TGFβ3 [12]): 0.000665 s⁻¹
kon (TGFβ3 [12]): 1.23e+07 M⁻¹ s⁻¹
IL-11 Release Assay - IC50 (A549 cells) (TGFβ2 [13]): 1 ng/mL
IL-11 Release Assay - IC50 (A549 cells) (TGFβ1 [14]): 0.4 ng/mL
IL-11 Release Assay - IC50 (A549 cells) (TGFβ3 [21]): 0.8 ng/mL
B4: XPA.42.681 (antibody, IgG2, V domains shown)
VH: not shown
VL: SYVLTQPPSVSVAPGKTARITCGGNNIGFRSVHWYQQKSGQAPVLVIYFDRARPSGIPERFSASNSENTATLTIRRVEAGDEADYYCQVWDSDSDDLVFGGGTQLTVLG
